Test [1] has as its target T1, FcγRIIb extracellular domain with C-terminal His tag (human, UniProt P31994 43-217).
T1 construct: extracellular domain; Soluble receptor used as analyte in Biacore; also called FcgRIIb; CD32B
T1 sequence (looked up): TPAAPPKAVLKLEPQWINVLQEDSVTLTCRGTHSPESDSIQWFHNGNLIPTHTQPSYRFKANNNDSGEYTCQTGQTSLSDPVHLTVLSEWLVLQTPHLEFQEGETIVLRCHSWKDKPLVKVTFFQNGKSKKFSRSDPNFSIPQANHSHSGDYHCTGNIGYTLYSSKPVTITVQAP
Briefly: SPR Biacore, antibody captured on antigen-peptide chip, FcγR as analyte. (In general: In SPR one partner is held on a chip, and binding of the other changes the refractive index at the surface.)

The target in test [2] is T2, FcγRIa extracellular domain with C-terminal His tag (human, UniProt P12314 16-292).
T2 construct: extracellular domain; Soluble receptor used as analyte in Biacore; also called FcgRI; FcgRIa
The description is as above.

T2 sequence (P12314 16-292): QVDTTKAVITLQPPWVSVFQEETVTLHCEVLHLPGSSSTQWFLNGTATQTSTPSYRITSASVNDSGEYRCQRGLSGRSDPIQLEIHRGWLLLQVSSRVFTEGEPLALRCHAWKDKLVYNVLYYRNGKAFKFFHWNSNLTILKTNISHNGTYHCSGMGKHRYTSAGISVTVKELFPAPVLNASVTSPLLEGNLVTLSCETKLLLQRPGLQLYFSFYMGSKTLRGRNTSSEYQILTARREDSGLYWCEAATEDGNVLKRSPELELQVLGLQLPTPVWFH

B1: GpH7-A5/GpH7-B3 variant E269_16H/GpL16-k0 (antibody, human IgG1, kappa)
heavy 1: not shown
heavy 2: not shown
light: DIVMTQSPLSLPVTPGEPASISCQASESLVHSNRNTYLHWYLQKPGQSPQLLIYKVSNRFSGVPDRFSGSGSGTDFTLKISRVEAEDVGVYYCSQNTHVPPTFGQGTKVEIERTVAAPSVFIFPPSDEQLKSGTASVVCLLNNFYPREAKVQWKVDNALQSGNSQESVTEQDSKDSTYSLSSTLTLSKADYEKHKVYACEVTHQGLSSPVTKSFNRGEC
notes: Heterodimerized anti-glypican-3 IgG1; mutation in the GpH7-B3 chain only; also called He Ab E269H
Turning to B1, the He/Con_2b in test [1] is 38.5 relative, GpH7-A5/GpH7-B3/GpL16-k0 = 100. For the same molecule, in test [2], the He/Con_1a was 106 relative, GpH7-A5/GpH7-B3/GpL16-k0 = 100.

B2: GpH7-A5/GpH7-B3 variant V266_15Y/GpL16-k0 (antibody, human IgG1, kappa)
heavy 1: not shown
heavy 2: not shown
light: DIVMTQSPLSLPVTPGEPASISCQASESLVHSNRNTYLHWYLQKPGQSPQLLIYKVSNRFSGVPDRFSGSGSGTDFTLKISRVEAEDVGVYYCSQNTHVPPTFGQGTKVEIERTVAAPSVFIFPPSDEQLKSGTASVVCLLNNFYPREAKVQWKVDNALQSGNSQESVTEQDSKDSTYSLSSTLTLSKADYEKHKVYACEVTHQGLSSPVTKSFNRGEC
notes: Heterodimerized anti-glypican-3 IgG1; mutation in the GpH7-B3 chain only; also called He Ab V266Y
On to B2, for which the He/Con_2b in test [1] was 49.4 relative, GpH7-A5/GpH7-B3/GpL16-k0 = 100. Moreover, in test [2], the He/Con_1a was 93.3 relative, GpH7-A5/GpH7-B3/GpL16-k0 = 100.

B3: GpH7-A5/GpH7-B3 variant S267_18N/GpL16-k0 (antibody, human IgG1, kappa)
heavy 1: not shown
heavy 2: not shown
light: DIVMTQSPLSLPVTPGEPASISCQASESLVHSNRNTYLHWYLQKPGQSPQLLIYKVSNRFSGVPDRFSGSGSGTDFTLKISRVEAEDVGVYYCSQNTHVPPTFGQGTKVEIERTVAAPSVFIFPPSDEQLKSGTASVVCLLNNFYPREAKVQWKVDNALQSGNSQESVTEQDSKDSTYSLSSTLTLSKADYEKHKVYACEVTHQGLSSPVTKSFNRGEC
notes: Heterodimerized anti-glypican-3 IgG1; mutation in the GpH7-B3 chain only; also called He Ab S267N
With B3, the He/Con_2b in test [1] was 47.7 relative, GpH7-A5/GpH7-B3/GpL16-k0 = 100. Besides, in test [2], the He/Con_1a was 102 relative, GpH7-A5/GpH7-B3/GpL16-k0 = 100.

B4: GpH7-A5/GpH7-B3 variant S267_12R/GpL16-k0 (antibody, human IgG1, kappa)
heavy 1: not shown
heavy 2: not shown
light: DIVMTQSPLSLPVTPGEPASISCQASESLVHSNRNTYLHWYLQKPGQSPQLLIYKVSNRFSGVPDRFSGSGSGTDFTLKISRVEAEDVGVYYCSQNTHVPPTFGQGTKVEIERTVAAPSVFIFPPSDEQLKSGTASVVCLLNNFYPREAKVQWKVDNALQSGNSQESVTEQDSKDSTYSLSSTLTLSKADYEKHKVYACEVTHQGLSSPVTKSFNRGEC
notes: Heterodimerized anti-glypican-3 IgG1; mutation in the GpH7-B3 chain only; also called He Ab S267R
For the molecule B4, the He/Con_2b in test [1] is 11.3 relative, GpH7-A5/GpH7-B3/GpL16-k0 = 100. Further, the He/Con_1a in test [2] is 92.7 relative, GpH7-A5/GpH7-B3/GpL16-k0 = 100.

B5: GpH7-A5/GpH7-B3 variant H268_11K/GpL16-k0 (antibody, human IgG1, kappa)
heavy 1: not shown
heavy 2: not shown
light: DIVMTQSPLSLPVTPGEPASISCQASESLVHSNRNTYLHWYLQKPGQSPQLLIYKVSNRFSGVPDRFSGSGSGTDFTLKISRVEAEDVGVYYCSQNTHVPPTFGQGTKVEIERTVAAPSVFIFPPSDEQLKSGTASVVCLLNNFYPREAKVQWKVDNALQSGNSQESVTEQDSKDSTYSLSSTLTLSKADYEKHKVYACEVTHQGLSSPVTKSFNRGEC
notes: Heterodimerized anti-glypican-3 IgG1; mutation in the GpH7-B3 chain only; also called He Ab H268K
Consider B5, for which the He/Con_2b in test [1] is 83 relative, GpH7-A5/GpH7-B3/GpL16-k0 = 100. In test [2], the He/Con_1a was 106 relative, GpH7-A5/GpH7-B3/GpL16-k0 = 100.

B6: GpH7-A5/GpH7-B3 variant H268_06M/GpL16-k0 (antibody, human IgG1, kappa)
heavy 1: not shown
heavy 2: not shown
light: DIVMTQSPLSLPVTPGEPASISCQASESLVHSNRNTYLHWYLQKPGQSPQLLIYKVSNRFSGVPDRFSGSGSGTDFTLKISRVEAEDVGVYYCSQNTHVPPTFGQGTKVEIERTVAAPSVFIFPPSDEQLKSGTASVVCLLNNFYPREAKVQWKVDNALQSGNSQESVTEQDSKDSTYSLSSTLTLSKADYEKHKVYACEVTHQGLSSPVTKSFNRGEC
notes: Heterodimerized anti-glypican-3 IgG1; mutation in the GpH7-B3 chain only; also called He Ab H268M
Consider B6, for which, in test [1], the He/Con_2b is 65.7 relative, GpH7-A5/GpH7-B3/GpL16-k0 = 100. Moreover, the He/Con_1a in test [2] is 105 relative, GpH7-A5/GpH7-B3/GpL16-k0 = 100.

B7: GpH7-A5/GpH7-B3 variant S267_11K/GpL16-k0 (antibody, human IgG1, kappa)
heavy 1: not shown
heavy 2: not shown
light: DIVMTQSPLSLPVTPGEPASISCQASESLVHSNRNTYLHWYLQKPGQSPQLLIYKVSNRFSGVPDRFSGSGSGTDFTLKISRVEAEDVGVYYCSQNTHVPPTFGQGTKVEIERTVAAPSVFIFPPSDEQLKSGTASVVCLLNNFYPREAKVQWKVDNALQSGNSQESVTEQDSKDSTYSLSSTLTLSKADYEKHKVYACEVTHQGLSSPVTKSFNRGEC
notes: Heterodimerized anti-glypican-3 IgG1; mutation in the GpH7-B3 chain only; also called He Ab S267K
Take B7: in test [1], the He/Con_2b is 12.2 relative, GpH7-A5/GpH7-B3/GpL16-k0 = 100. Moreover, the He/Con_1a in test [2] is 93.3 relative, GpH7-A5/GpH7-B3/GpL16-k0 = 100.

B8: GpH7-A5/GpH7-B3 variant S267_05P/GpL16-k0 (antibody, human IgG1, kappa)
heavy 1: not shown
heavy 2: not shown
light: DIVMTQSPLSLPVTPGEPASISCQASESLVHSNRNTYLHWYLQKPGQSPQLLIYKVSNRFSGVPDRFSGSGSGTDFTLKISRVEAEDVGVYYCSQNTHVPPTFGQGTKVEIERTVAAPSVFIFPPSDEQLKSGTASVVCLLNNFYPREAKVQWKVDNALQSGNSQESVTEQDSKDSTYSLSSTLTLSKADYEKHKVYACEVTHQGLSSPVTKSFNRGEC
notes: Heterodimerized anti-glypican-3 IgG1; mutation in the GpH7-B3 chain only; also called He Ab S267P
As to B8, the He/Con_2b in test [1] was 31.5 relative, GpH7-A5/GpH7-B3/GpL16-k0 = 100. The He/Con_1a in test [2] is 91.8 relative, GpH7-A5/GpH7-B3/GpL16-k0 = 100.

B9: GpH7-A5/GpH7-B3 variant S267_16H/GpL16-k0 (antibody, human IgG1, kappa)
heavy 1: not shown
heavy 2: not shown
light: DIVMTQSPLSLPVTPGEPASISCQASESLVHSNRNTYLHWYLQKPGQSPQLLIYKVSNRFSGVPDRFSGSGSGTDFTLKISRVEAEDVGVYYCSQNTHVPPTFGQGTKVEIERTVAAPSVFIFPPSDEQLKSGTASVVCLLNNFYPREAKVQWKVDNALQSGNSQESVTEQDSKDSTYSLSSTLTLSKADYEKHKVYACEVTHQGLSSPVTKSFNRGEC
notes: Heterodimerized anti-glypican-3 IgG1; mutation in the GpH7-B3 chain only; also called He Ab S267H
In the case of B9, the He/Con_2b in test [1] is 65.9 relative, GpH7-A5/GpH7-B3/GpL16-k0 = 100. Moreover, the He/Con_1a in test [2] was 100 relative, GpH7-A5/GpH7-B3/GpL16-k0 = 100.

B10: GpH7-A5/GpH7-B3 variant E269_15Y/GpL16-k0 (antibody, human IgG1, kappa)
heavy 1: not shown
heavy 2: not shown
light: DIVMTQSPLSLPVTPGEPASISCQASESLVHSNRNTYLHWYLQKPGQSPQLLIYKVSNRFSGVPDRFSGSGSGTDFTLKISRVEAEDVGVYYCSQNTHVPPTFGQGTKVEIERTVAAPSVFIFPPSDEQLKSGTASVVCLLNNFYPREAKVQWKVDNALQSGNSQESVTEQDSKDSTYSLSSTLTLSKADYEKHKVYACEVTHQGLSSPVTKSFNRGEC
notes: Heterodimerized anti-glypican-3 IgG1; mutation in the GpH7-B3 chain only; also called He Ab E269Y
With B10, in test [1], the He/Con_2b is 44.7 relative, GpH7-A5/GpH7-B3/GpL16-k0 = 100. Further, the He/Con_1a in test [2] was 106 relative, GpH7-A5/GpH7-B3/GpL16-k0 = 100.

Source of the values: patent publication US20150344570A1 (published 2015).
